Source: patent publication US20020147129A1
pIC50: −log10 of the molar value.

Biological target: embryonic chicken AT4 receptor (chicken)
Experiment: competition for [125I]Ang IV binding, E13 chicken chorioallantoic membranes

embryonic chicken AT4 receptor (chicken), sequence (F1NNE7 entry or part of it): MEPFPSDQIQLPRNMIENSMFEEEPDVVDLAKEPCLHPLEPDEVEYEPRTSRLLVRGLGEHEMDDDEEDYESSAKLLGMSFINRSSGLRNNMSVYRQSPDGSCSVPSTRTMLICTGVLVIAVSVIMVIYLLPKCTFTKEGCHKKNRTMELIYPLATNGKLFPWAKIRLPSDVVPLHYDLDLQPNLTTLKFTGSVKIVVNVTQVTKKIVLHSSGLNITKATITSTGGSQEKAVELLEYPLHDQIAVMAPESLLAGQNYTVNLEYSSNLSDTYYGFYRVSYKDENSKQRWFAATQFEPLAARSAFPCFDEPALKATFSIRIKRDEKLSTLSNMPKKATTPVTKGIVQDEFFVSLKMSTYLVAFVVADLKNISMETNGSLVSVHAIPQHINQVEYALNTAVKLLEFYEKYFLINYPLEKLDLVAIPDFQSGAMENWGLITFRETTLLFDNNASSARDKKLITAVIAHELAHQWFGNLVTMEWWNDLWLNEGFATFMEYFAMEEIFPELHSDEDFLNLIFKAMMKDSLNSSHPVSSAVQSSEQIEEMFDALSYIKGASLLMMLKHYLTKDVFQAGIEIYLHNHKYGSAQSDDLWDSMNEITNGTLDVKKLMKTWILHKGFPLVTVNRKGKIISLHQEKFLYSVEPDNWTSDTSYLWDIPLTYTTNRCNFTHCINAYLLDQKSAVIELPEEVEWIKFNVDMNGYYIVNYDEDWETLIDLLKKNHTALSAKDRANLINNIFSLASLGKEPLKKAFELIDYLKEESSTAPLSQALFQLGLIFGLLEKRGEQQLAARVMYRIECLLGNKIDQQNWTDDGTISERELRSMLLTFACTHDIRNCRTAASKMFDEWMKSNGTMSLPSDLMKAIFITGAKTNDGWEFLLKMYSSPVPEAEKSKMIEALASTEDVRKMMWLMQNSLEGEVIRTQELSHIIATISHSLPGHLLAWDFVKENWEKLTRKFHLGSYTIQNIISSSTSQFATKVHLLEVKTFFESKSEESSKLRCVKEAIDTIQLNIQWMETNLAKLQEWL

Nle^1-Y-I-amide (peptide)
pIC50: 5.66
